Read-outs that look alike come from different tables or passages of the source. Square brackets hold non-standard residues; d marks the D form. Phe(4-F) = N[C@@H](Cc1ccc(F)cc1)C(=O)O; 1Nal = N[C@@H](Cc1cccc2ccccc12)C(=O)O; Cha = N[C@@H](CC1CCCCC1)C(=O)O; Cit = NC(=O)NCCC[C@H](N)C(=O)O; Nle = CCCC[C@H](N)C(=O)O; Nva = CCC[C@H](N)C(=O)O; Abu = CC[C@H](N)C(=O)O; Aib = CC(C)(N)C(=O)O; Sar = CNCC(=O)O
B1: H-His-Ala-Lys-Arg-Aib-Leu-Ile-Phe-NH2 (peptide)
peptide: H-HAKR[Aib]LIF-NH2
SMILES: CC[C@H](C)[C@H](NC(=O)[C@H](CC(C)C)NC(=O)C(C)(C)NC(=O)[C@H](CCCNC(=N)N)NC(=O)[C@H](CCCCN)NC(=O)[C@H](C)NC(=O)[C@@H](N)Cc1c[nH]cn1)C(=O)N[C@@H](Cc1ccccc1)C(N)=O
B2: H-His-Ala-Lys-Arg-Sar-Leu-Ile-Phe-NH2 (peptide)
peptide: H-HAKR[Sar]LIF-NH2
SMILES: CC[C@H](C)[C@H](NC(=O)[C@H](CC(C)C)NC(=O)CN(C)C(=O)[C@H](CCCNC(=N)N)NC(=O)[C@H](CCCCN)NC(=O)[C@H](C)NC(=O)[C@@H](N)Cc1c[nH]cn1)C(=O)N[C@@H](Cc1ccccc1)C(N)=O
B3: H-His-Ala-Lys-Arg-Arg-Nle-Ile-Phe-NH2 (peptide)
peptide: H-HAKRR[Nle]IF-NH2
SMILES: CCCC[C@H](NC(=O)[C@H](CCCNC(=N)N)NC(=O)[C@H](CCCNC(=N)N)NC(=O)[C@H](CCCCN)NC(=O)[C@H](C)NC(=O)[C@@H](N)Cc1c[nH]cn1)C(=O)N[C@H](C(=O)N[C@@H](Cc1ccccc1)C(N)=O)[C@@H](C)CC
B4: H-His-Ala-Lys-Arg-Arg-Nva-Ile-Phe-NH2 (peptide)
peptide: H-HAKRR[Nva]IF-NH2
SMILES: CCC[C@H](NC(=O)[C@H](CCCNC(=N)N)NC(=O)[C@H](CCCNC(=N)N)NC(=O)[C@H](CCCCN)NC(=O)[C@H](C)NC(=O)[C@@H](N)Cc1c[nH]cn1)C(=O)N[C@H](C(=O)N[C@@H](Cc1ccccc1)C(N)=O)[C@@H](C)CC
B5: H-His-Ala-Lys-Arg-Arg-Cha-Ile-Phe-NH2 (peptide)
peptide: H-HAKRR[Cha]IF-NH2
SMILES: CC[C@H](C)[C@H](NC(=O)[C@H](CC1CCCCC1)NC(=O)[C@H](CCCNC(=N)N)NC(=O)[C@H](CCCNC(=N)N)NC(=O)[C@H](CCCCN)NC(=O)[C@H](C)NC(=O)[C@@H](N)Cc1c[nH]cn1)C(=O)N[C@@H](Cc1ccccc1)C(N)=O
B6: H-His-Ala-Lys-Arg-Arg-1Nap-Ile-Phe-NH2 (peptide)
peptide: H-HAKRR[1Nal]IF-NH2
SMILES: CC[C@H](C)[C@H](NC(=O)[C@H](Cc1cccc2ccccc12)NC(=O)[C@H](CCCNC(=N)N)NC(=O)[C@H](CCCNC(=N)N)NC(=O)[C@H](CCCCN)NC(=O)[C@H](C)NC(=O)[C@@H](N)Cc1c[nH]cn1)C(=O)N[C@@H](Cc1ccccc1)C(N)=O
B7: H-Ala-Ala-Abu-Arg-Arg-Leu-Ile-pFPhe-NH2 (peptide)
peptide: H-AA[Abu]RRLI[Phe(4-F)]-NH2
SMILES: CC[C@H](NC(=O)[C@H](C)NC(=O)[C@H](C)N)C(=O)N[C@@H](CCCNC(=N)N)C(=O)N[C@@H](CCCNC(=N)N)C(=O)N[C@@H](CC(C)C)C(=O)N[C@H](C(=O)N[C@@H](Cc1ccc(F)cc1)C(N)=O)[C@@H](C)CC
B8: H-Ala-Ala-Lys-Arg-Arg-Leu-Ile-pFPhe-NH2 (peptide)
peptide: H-AAKRRLI[Phe(4-F)]-NH2
SMILES: CC[C@H](C)[C@H](NC(=O)[C@H](CC(C)C)NC(=O)[C@H](CCCNC(=N)N)NC(=O)[C@H](CCCNC(=N)N)NC(=O)[C@H](CCCCN)NC(=O)[C@H](C)NC(=O)[C@H](C)N)C(=O)N[C@@H](Cc1ccc(F)cc1)C(N)=O
B9: H-Ala-Ala-Lys-Arg-Cit-Leu-Ile-pFPhe-NH2 (peptide)
peptide: H-AAKR[Cit]LI[Phe(4-F)]-NH2
SMILES: CC[C@H](C)[C@H](NC(=O)[C@H](CC(C)C)NC(=O)[C@H](CCCNC(N)=O)NC(=O)[C@H](CCCNC(=N)N)NC(=O)[C@H](CCCCN)NC(=O)[C@H](C)NC(=O)[C@H](C)N)C(=O)N[C@@H](Cc1ccc(F)cc1)C(N)=O
B10: H-Ala-Ala-Lys-Arg-Arg-Leu-Ala-pFPhe-NH2 (peptide)
peptide: H-AAKRRLA[Phe(4-F)]-NH2
SMILES: CC(C)C[C@H](NC(=O)[C@H](CCCNC(=N)N)NC(=O)[C@H](CCCNC(=N)N)NC(=O)[C@H](CCCCN)NC(=O)[C@H](C)NC(=O)[C@H](C)N)C(=O)N[C@@H](C)C(=O)N[C@@H](Cc1ccc(F)cc1)C(N)=O
B11: H-Ala-Ala-Abu-Arg-Ser-Leu-Ile-pFPhe-NH2 (peptide)
peptide: H-AA[Abu]RSLI[Phe(4-F)]-NH2
SMILES: CC[C@H](NC(=O)[C@H](C)NC(=O)[C@H](C)N)C(=O)N[C@@H](CCCNC(=N)N)C(=O)N[C@@H](CO)C(=O)N[C@@H](CC(C)C)C(=O)N[C@H](C(=O)N[C@@H](Cc1ccc(F)cc1)C(N)=O)[C@@H](C)CC
B12: H-Ala-Ala-Lys-Gln-Arg-Leu-Ile-pFPhe-NH2 (peptide)
peptide: H-AAKQRLI[Phe(4-F)]-NH2
SMILES: CC[C@H](C)[C@H](NC(=O)[C@H](CC(C)C)NC(=O)[C@H](CCCNC(=N)N)NC(=O)[C@H](CCC(N)=O)NC(=O)[C@H](CCCCN)NC(=O)[C@H](C)NC(=O)[C@H](C)N)C(=O)N[C@@H](Cc1ccc(F)cc1)C(N)=O

Columns and labels:
Test in all cases: cell-based or functional assay
CDK2/cyclin A [1] = target: T1, CDK2/cyclin A (UniProt P24941 1-298; P20248 1-432)
CDK2/cyclin A [2] = target: T1, CDK2/cyclin A; remark: listed apart in the source
CDK2/cyclin A [3] = target: T1, CDK2/cyclin A; remark: listed apart in the source

Binder | Relative activity, Kinase Inhibition (CDK2/cyclin A kinase assay, pRb substrate, [ATP] = 100 µM) (CDK2/cyclin A [2]) | Relative activity, Kinase Inhibition (CDK2/cyclin A kinase assay, pRb substrate, [ATP] = 100 µM) (CDK2/cyclin A [3]) | further results
H-HAKRSLIF-NH2 [H-His-Ala-Lys-Arg-Ser-Leu-Ile-Phe-NH2] | – | – | Relative activity, Kinase Inhibition (CDK2/cyclin A kinase assay, pRb substrate, [ATP] = 100 µM) (CDK2/cyclin A [1]): 0.7 relative to H-His-Ala-Lys-Arg-Arg-Leu-Ile-Phe-NH2 (=1)
B1 | – | – | Relative activity, Kinase Inhibition (CDK2/cyclin A kinase assay, pRb substrate, [ATP] = 100 µM) (CDK2/cyclin A [1]): < 0.1 relative to H-His-Ala-Lys-Arg-Arg-Leu-Ile-Phe-NH2 (=1)
B2 | – | – | Relative activity, Kinase Inhibition (CDK2/cyclin A kinase assay, pRb substrate, [ATP] = 100 µM) (CDK2/cyclin A [1]): < 0.1 relative to H-His-Ala-Lys-Arg-Arg-Leu-Ile-Phe-NH2 (=1)
H-HAKRRIIF-NH2 [H-His-Ala-Lys-Arg-Arg-Ile-Ile-Phe-NH2] | 1.5 relative to H-His-Ala-Lys-Arg-Arg-Leu-Ile-Phe-NH2 (=1) | – | –
H-HAKRRVIF-NH2 [H-His-Ala-Lys-Arg-Arg-Val-Ile-Phe-NH2] | < 0.1 relative to H-His-Ala-Lys-Arg-Arg-Leu-Ile-Phe-NH2 (=1) | – | –
B3 | < 0.1 relative to H-His-Ala-Lys-Arg-Arg-Leu-Ile-Phe-NH2 (=1) | – | –
B4 | < 0.1 relative to H-His-Ala-Lys-Arg-Arg-Leu-Ile-Phe-NH2 (=1) | – | –
B5 | < 0.1 relative to H-His-Ala-Lys-Arg-Arg-Leu-Ile-Phe-NH2 (=1) | – | –
H-HAKRRFIF-NH2 [H-His-Ala-Lys-Arg-Arg-Phe-Ile-Phe-NH2] | < 0.1 relative to H-His-Ala-Lys-Arg-Arg-Leu-Ile-Phe-NH2 (=1) | – | –
B6 | < 0.1 relative to H-His-Ala-Lys-Arg-Arg-Leu-Ile-Phe-NH2 (=1) | – | –
B7 | – | 60 relative to H-His-Ala-Lys-Arg-Arg-Leu-Ile-Phe-NH2 (=1) | –
B8 | – | 80 relative to H-His-Ala-Lys-Arg-Arg-Leu-Ile-Phe-NH2 (=1) | –
B9 | – | 10 relative to H-His-Ala-Lys-Arg-Arg-Leu-Ile-Phe-NH2 (=1) | –
B10 | – | 20 relative to H-His-Ala-Lys-Arg-Arg-Leu-Ile-Phe-NH2 (=1) | –
B11 | – | 14 relative to H-His-Ala-Lys-Arg-Arg-Leu-Ile-Phe-NH2 (=1) | –
B12 | – | 4 relative to H-His-Ala-Lys-Arg-Arg-Leu-Ile-Phe-NH2 (=1) | –
AKRRLIX (pFPhe (p-fluorophenylalanine) at position 7; C-terminal amide (-NH2)) [H-Ala-Lys-Arg-Arg-Leu-Ile-pFPhe-NH2] | – | 4 relative to H-His-Ala-Lys-Arg-Arg-Leu-Ile-Phe-NH2 (=1) | –

Reference: US20040176301A1 (CYCLACEL, published 2004)
